Measurements published in patent US8383386.

T1: factor Va, P12259
T1 chain 1: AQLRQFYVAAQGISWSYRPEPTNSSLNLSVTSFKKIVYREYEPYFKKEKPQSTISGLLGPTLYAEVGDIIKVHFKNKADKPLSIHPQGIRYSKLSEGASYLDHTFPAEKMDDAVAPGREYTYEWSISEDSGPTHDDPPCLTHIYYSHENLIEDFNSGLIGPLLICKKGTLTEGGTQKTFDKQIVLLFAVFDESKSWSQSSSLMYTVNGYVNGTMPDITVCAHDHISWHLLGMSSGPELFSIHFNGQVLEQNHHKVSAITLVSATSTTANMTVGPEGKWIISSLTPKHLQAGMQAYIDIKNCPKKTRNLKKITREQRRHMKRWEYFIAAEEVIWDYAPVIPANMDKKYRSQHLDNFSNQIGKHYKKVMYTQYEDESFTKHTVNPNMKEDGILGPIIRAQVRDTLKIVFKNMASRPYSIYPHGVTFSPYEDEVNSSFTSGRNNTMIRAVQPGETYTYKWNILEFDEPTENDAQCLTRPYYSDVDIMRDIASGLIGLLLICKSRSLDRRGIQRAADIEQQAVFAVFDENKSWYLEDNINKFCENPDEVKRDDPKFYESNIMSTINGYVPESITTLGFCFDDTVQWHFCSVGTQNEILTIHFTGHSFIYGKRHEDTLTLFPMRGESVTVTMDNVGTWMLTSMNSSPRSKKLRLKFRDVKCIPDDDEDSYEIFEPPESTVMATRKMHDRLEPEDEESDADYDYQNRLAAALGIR
T1 chain 2: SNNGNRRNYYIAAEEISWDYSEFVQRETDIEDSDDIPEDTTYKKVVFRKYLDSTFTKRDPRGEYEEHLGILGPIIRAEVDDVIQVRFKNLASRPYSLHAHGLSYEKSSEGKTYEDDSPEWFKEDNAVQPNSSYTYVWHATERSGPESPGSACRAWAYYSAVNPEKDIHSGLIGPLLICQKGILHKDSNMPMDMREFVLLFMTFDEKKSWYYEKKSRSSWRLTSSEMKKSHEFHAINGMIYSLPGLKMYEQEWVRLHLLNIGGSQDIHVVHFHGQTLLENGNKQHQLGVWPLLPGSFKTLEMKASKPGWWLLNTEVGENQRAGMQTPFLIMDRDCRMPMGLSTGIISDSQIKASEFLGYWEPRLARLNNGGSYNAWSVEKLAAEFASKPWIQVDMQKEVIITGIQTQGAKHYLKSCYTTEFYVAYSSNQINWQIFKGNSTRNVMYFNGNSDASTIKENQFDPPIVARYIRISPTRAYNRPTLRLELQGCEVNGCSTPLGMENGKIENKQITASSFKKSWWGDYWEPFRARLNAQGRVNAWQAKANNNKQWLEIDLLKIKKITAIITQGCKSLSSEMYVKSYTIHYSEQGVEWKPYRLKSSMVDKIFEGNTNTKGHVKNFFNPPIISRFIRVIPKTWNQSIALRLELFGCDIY


Key:
factor Va = factor Va (UniProt P12259)
factor Va, P12259 = target: T1, factor Va, P12259

Row | Molecule | Km for peptidyl substrates after assembly into prothrombinase (factor Va) | Km for peptidyl substrates after assembly into prothrombinase (factor Va, P12259)
1 | recombinant factor Xa variant Ile16→Gly | even the Km value for I235G was almost completely restored (3-fold increased compared to wild-type FXa) when assembled in prothrombinase | –
2 | recombinant factor Xa variant Val17→Ala (protein) chain 1: ANSFLEEMKKGHLERECMEETCSYEEAREVFEDSDKTNEFWNKYKDGDQCETSPCQNQGKCKDGLGEYTCTCLEGFEGKNCELFTRKLCSLDNGDCDQFCHEEQNSVVCSCARGYTLADNGKACIPTGPYPCGKQTLER chain 2: IAGGQECKDGECPWQALLINEENEGFCGGTILSEFYILTAAHCLYQAKRFKVRVGDRNTEQEEGGEAVHEVEVVIKHNRFTKETYDFDIAVLRLKTPITFRMNVAPACLPERDWAESTLMTQKTGIVSGFGRTHEKGRQSTRLKMLEVPYVDRNSCKLSSSFIITQNMFCAGYDTKQEDACQGDSGGPHVTRFKDTYFVTGIVSWGEGCARKGKYGIYTKVTAFLKWIDRSMKTRGLPKAKSHAPEVITSSPLK | – | the assembly of FXaI235L and FXaV236A into prothrombinase almost completely restored the Km for peptidyl substrates
